The term EC50 denotes the concentration needed to bring the measured effect to its halfway point. Low readings indicate a more potent agent, high ones a less potent agent. As a reminder, the Kd is the free concentration of one partner at which half of the binding sites on the other are occupied at equilibrium, for simple one-to-one binding. Lower therefore signals higher affinity.

Test [1] addresses T1, huPSG1-His6 (CC66 Novoprotein) (human, UniProt P11464 35-419, limits assumed).
T1 construct: also called human PSG1
Kind of test: ELISA, protein coated at 12 nM. A general note: An ELISA detects its analyte on a solid surface through an enzyme-linked reagent.

Test [2] has as its target T2, huCEACAM8-His6 (C583 Novoprotein) (human, UniProt P31997 35-320, limits assumed).
T2 construct: also called human CEACAM8
T2 sequence (looked up): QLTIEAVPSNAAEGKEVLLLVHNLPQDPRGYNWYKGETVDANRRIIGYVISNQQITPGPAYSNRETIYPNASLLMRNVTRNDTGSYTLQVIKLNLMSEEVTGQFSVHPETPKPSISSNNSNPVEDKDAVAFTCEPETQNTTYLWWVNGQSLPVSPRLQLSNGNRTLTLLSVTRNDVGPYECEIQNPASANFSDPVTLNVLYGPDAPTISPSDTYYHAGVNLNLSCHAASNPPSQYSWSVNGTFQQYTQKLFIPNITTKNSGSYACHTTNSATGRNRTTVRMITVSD
Kind of test: ELISA, protein coated at 12 nM.

Test [3] deals with T3, huCEACAM7-His6 (C926 Novoprotein) (human, UniProt Q14002 36-242, limits assumed).
T3 construct: also called human CEACAM7
T3 sequence (looked up): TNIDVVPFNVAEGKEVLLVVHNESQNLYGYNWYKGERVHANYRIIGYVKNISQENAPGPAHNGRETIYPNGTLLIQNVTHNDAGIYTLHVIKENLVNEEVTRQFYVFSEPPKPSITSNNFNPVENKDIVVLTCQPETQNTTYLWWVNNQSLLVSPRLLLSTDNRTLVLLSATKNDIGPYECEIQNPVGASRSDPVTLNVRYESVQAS
Kind of test: ELISA, protein coated at 12 nM.

Test [4] deals with T4, huCEACAM6-His6 (3934-CM R&D Systems and recombinant protein obtained from Syngene) (human, UniProt P40199 35-320).
T4 construct: Two sources of the protein are named; the result is told once; also called human CEACAM6
T4 sequence (looked up): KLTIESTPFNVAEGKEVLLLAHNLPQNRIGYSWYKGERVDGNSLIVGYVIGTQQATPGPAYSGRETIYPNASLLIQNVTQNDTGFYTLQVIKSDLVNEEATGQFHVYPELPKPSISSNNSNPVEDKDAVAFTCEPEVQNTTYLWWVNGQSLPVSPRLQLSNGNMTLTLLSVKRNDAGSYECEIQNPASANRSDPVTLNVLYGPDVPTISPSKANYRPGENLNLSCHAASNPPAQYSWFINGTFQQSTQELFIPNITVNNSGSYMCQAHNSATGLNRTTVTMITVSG
In words: ELISA, protein coated at 12 nM.

For test [5], the target named is T5, huCEACAM1-His6 (2244-CM R&D Systems) (human, UniProt P13688 35-428).
T5 construct: also called human CEACAM1
T5 sequence (looked up): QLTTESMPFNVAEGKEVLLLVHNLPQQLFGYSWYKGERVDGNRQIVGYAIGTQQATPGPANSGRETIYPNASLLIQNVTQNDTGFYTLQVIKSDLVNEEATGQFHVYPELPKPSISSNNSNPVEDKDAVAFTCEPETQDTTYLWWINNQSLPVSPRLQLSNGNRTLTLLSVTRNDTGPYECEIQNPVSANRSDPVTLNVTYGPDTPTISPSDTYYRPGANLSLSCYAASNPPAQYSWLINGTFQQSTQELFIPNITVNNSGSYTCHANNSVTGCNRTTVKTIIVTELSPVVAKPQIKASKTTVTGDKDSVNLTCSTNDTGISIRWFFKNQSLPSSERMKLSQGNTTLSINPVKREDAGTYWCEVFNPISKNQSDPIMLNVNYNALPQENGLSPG
Kind of test: ELISA, protein coated at 12 nM.

The target of test [6] is T6, huCEACAM3-His6 (C449 Novoprotein) (human, UniProt P40198 35-155, limits assumed).
T6 construct: also called human CEACAM3
T6 sequence (looked up): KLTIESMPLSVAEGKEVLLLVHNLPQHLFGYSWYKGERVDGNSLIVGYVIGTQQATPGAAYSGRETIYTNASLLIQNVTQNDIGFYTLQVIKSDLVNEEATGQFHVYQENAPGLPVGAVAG
Kind of test: ELISA, protein coated at 12 nM.

The target of test [7] is T7, huCEACAM5-His6 (R&D Systems #4128-CM) (human, UniProt P06731 35-685).
T7 construct: Bought protein; also called human CEACAM5; not shown: His6 tag
T7 sequence: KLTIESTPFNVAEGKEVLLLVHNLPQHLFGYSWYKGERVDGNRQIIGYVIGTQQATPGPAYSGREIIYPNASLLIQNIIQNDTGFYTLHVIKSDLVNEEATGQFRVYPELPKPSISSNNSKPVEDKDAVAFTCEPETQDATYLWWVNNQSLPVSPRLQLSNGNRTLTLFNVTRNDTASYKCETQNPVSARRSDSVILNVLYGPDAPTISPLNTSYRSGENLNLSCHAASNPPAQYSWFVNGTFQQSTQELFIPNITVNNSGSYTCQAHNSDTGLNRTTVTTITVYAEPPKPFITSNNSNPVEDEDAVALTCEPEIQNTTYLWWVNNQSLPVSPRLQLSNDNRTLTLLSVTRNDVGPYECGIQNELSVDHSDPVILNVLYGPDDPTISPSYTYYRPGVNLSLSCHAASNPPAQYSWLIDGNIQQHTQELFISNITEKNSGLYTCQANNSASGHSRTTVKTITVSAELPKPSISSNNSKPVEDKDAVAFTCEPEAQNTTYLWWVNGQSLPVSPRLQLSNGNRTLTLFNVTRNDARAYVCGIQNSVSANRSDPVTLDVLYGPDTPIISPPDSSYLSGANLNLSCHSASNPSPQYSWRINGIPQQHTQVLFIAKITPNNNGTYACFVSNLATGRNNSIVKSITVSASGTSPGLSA
Kind of test: ELISA, protein coated at 12 nM; Fab, not IgG.

In test [8] the target is T8, BSA (bovine serum albumin) (bovine, UniProt P02769 25-607).
T8 construct: Negative control; also called unrelated protein
Kind of test: ELISA.

The target in test [9] is T9, human_CEACAM5_ECD-his-biotin (R&D Systems) (human, UniProt P06731 35-685, biotinylated using routine methods (sites not given)).
T9 construct: Bought protein; not shown: His tag and any linker
T9 sequence: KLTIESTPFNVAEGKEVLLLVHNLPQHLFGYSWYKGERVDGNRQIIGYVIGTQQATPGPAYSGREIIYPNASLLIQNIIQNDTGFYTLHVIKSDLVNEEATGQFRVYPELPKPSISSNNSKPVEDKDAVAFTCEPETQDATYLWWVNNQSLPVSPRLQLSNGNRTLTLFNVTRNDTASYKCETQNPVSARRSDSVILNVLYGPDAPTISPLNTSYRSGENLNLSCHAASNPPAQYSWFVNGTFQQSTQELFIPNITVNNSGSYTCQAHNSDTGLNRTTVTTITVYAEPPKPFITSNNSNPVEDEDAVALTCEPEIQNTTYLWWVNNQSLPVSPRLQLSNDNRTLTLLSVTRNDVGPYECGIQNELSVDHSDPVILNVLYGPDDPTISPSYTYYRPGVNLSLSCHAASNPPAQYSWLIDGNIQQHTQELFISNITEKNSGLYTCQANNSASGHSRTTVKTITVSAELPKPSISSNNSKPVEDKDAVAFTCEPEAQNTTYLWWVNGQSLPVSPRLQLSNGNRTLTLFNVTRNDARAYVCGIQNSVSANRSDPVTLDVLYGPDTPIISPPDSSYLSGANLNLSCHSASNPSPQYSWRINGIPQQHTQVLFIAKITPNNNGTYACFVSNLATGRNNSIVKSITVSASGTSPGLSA
Kind of test: BLI (Octet Red), biotinylated antigen captured on streptavidin biosensor, Fab as analyte 6.25-200 nM. Background: Biolayer interferometry detects binding as a change in optical thickness at a sensor tip.

T1 sequence (P11464 35-419 limits assumed): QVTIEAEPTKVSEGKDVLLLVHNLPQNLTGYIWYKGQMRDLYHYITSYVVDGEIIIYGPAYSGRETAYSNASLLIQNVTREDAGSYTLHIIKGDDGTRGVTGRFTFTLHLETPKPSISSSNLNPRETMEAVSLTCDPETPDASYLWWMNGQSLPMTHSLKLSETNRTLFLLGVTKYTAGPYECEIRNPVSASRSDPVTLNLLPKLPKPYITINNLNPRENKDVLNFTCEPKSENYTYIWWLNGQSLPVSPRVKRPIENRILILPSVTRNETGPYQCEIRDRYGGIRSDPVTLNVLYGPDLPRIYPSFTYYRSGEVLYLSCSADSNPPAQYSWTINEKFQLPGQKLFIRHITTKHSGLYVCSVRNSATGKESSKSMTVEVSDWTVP
T8 sequence (P02769 25-607 limits assumed): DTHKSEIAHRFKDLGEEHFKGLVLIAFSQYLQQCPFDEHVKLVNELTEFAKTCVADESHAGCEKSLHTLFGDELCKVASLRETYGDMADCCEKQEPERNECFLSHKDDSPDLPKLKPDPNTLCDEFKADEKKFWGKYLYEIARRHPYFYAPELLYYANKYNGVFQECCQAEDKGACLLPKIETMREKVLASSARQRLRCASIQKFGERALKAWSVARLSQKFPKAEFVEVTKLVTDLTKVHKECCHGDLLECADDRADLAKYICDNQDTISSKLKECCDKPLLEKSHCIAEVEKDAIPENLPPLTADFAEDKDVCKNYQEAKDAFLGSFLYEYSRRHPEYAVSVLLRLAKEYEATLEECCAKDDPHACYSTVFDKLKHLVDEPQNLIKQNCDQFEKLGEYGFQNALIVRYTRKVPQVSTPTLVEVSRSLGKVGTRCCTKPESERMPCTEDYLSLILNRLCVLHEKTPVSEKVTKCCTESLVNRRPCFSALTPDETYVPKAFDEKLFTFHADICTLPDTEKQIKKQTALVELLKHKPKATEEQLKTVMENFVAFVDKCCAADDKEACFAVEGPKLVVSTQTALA

B1: Fab of mAb1 (Fab, V domains shown)
VH: EVQLQESGPGLVKPSQTLSLTCTVSDGSVSRGGYYLTWIRQHPGKGLEWIGYIYYSGSTYFNPSLRSRVTMSVDTSKNQFSLKLSSVTAADTAVYYCARGIAVAPFDYWGQGTLVTVSS
VL: EIVLTQSPATLSVSPGERATLSCRTSQSVRSNLAWYQQKPGQAPRLLIYAASTRATGIPARFSGSGSGTEFTLTISSLQSEDFAVYYCQQYTNWPFTFGPGTKVDIK
notes: Fab format of mAb1; also called Fab generated from mAb1
Regarding B1, the binding result in test [1], in test [2], in [3], in [4], in test [5] and in test [6] was “no binding (tested: 1000 nM)” in each case. Further, the binding result in test [8] was “no binding (tested: all concentrations tested)”. The response in test [7] was half-maximal at 3.04 nM (EC50). This molecule showed a Kd in test [9] of 6.3 nM.

The values above are taken from patent US20250179210A1 (Merck KGaA, published 2025).
